{
  "source": "paper PMC7665192",
  "about": "“A natriuretic peptide from Arabidopsis thaliana (AtPNP-A) can modulate catalase 2 activity” (Scientific Reports, 2020)",
  "molecules": {"B1": {"name": "rAtPNP-A: N-terminally 6xHis-tagged AtPNP-A expressed in BL21 (DE3) One Shot E. coli cells (protein)", "chain": "AQGKAVYYDPPYTRSACYGTQRETLVVGVKNNLWQNGRACGRRYRVRCIGATYNFDRACTGRTVDVKVVDFCREPCNGDLNLSRDAFRVIANTDAGNIRVVYTPI", "modifications": "left off: His6, N-terminal, state not stated", "notes": "N-terminally 6xHis-tagged AtPNP-A expressed in BL21 (DE3) One Shot E. coli cells"}, "B2": {"name": "NeYFP-fused AtPNP-A: N-terminal (NeYFP) fragment of eYFP followed by AtPNP-A coding region (protein)", "chain": "B1 chain", "modifications": "left off: NeYFP (N-terminal fragment of eYFP), N-terminal, kept"}, "B3": {"name": "CeYFP-AtPNP-A: C-terminal (CeYFP) fragment of eYFP followed by AtPNP-A coding region (protein)", "chain": "B1 chain", "modifications": "left off: CeYFP (C-terminal fragment of eYFP), N-terminal, kept"}, "B4": {"name": "synthetic peptide containing the active region of AtPNP-A (amino acids 33-66) (peptide)", "peptide": "PYTRSACYGTQRETLVVGVKNNLWQNGRACGRRY", "modifications": "disulfide 7-30 (inferred); also: synthesized with or without C-terminal biotin", "notes": "active region of Arabidopsis thaliana plant natriuretic peptide A (AtPNP-A), amino acids 33-66; also called pAtPNP-A; AtPNP-A peptide; source: synthetic peptide (GenScript, purity > 95%)"}},
  "key": {"[1]": {"test_system": "CAT2 transcript", "settings": "exogenous application; cited from earlier work", "source_text": "It is also conceivable that modulation of CAT2 activity by AtPNP-A may not only have implications for plant biotic stress tolerance but may also result in changes in responses to abiotic stress. Activity of CAT2 is required for decomposition of photorespiration-derived H2O2 preventing redox perturbation under ambient growth conditions[59] while CAT2 deficiency causes a defective photorespiration phenotype including suppressed growth[58],[59] and accumulation of H2O2 in leaves. During senescence suppression of CAT2 function, mediated by G-BOX BINDING FACTOR1 (GBF1)[76], decreases CAT2 activ ..."}, "[2]": {"test_system": "rCAT2", "experiment": "Enzymatic activity of rCAT2, Amplex Red catalase assay", "assay_type": "biochemical, Arabidopsis thaliana", "settings": "100 nM, Amplex Red catalase assay kit; three independent experiments, P < 0.01", "description": "(§1) Enzymatic activity of CAT isozymes and total CAT activities of protein extracted from WT and atpnp-a or cat2-2 mutant lines, when indicated sprayed with 1 nM pAtPNP-A or pScr 20 min before harvesting, were determined zymographically and spectrophotometrically, as described in[56]. Relative quantification of intensity of bands corresponding to different CAT isoforms was performed with ImageJ version 1.48 (https://imagej.nih.gov/ij/). Enzymatic activity of the rCAT2 in the presence of absence of 100 nM rAtPNP-A, pAtPNP-A or pScr were determined with the use of Amplex Red catalase assay kit (Invitrogen) according to the manufacturer’s instructions.\n(§2) Figure 3 AtPNP-A directly interacts with CAT2 to modulate its enzymatic activity in vitro. (a) Zymogram depicting changes in the enzymatic activity of CAT isoforms extracted from wild type (WT) or cat2-2 knockout mutant seedlings in response to 1 nM pAtPNP-A or pScr. Densitometric semi-quantification of bands corresponding to CAT2, normalized to the loading control (dark-coloured band on zymogram) for WT samples treated with 1 nM pAtPNP-A or pScr (mean ± SD, Student’s t-test, n = 3, P < 0.05). […] (b) Total CAT activity in protein extracted from WT seedlings assayed with Amplex Red catalase assay kit in the presence of 1 nM pAtPNP-A, rAtPNP-A, or pScr. […] (c) Enzymatic activity of rCAT2 in the presence of 100 nM pAtPNP-A, rAtPNP-A, or pScr."}, "[3]": {"test_system": "A. thaliana (Col-0) mesophyll cell protoplasts", "experiment": "Mesophyll cell protoplast swelling (volume)", "assay_type": "cell-based, Arabidopsis thaliana", "settings": "100 nM peptide or 1 μg mL^−1 rAtPNP-A, 0.4 M mannitol, 20 min, room temperature, n = 50, P < 0.0001", "source_text": "Peptides containing amino acid sequence of the active region of AtPNP-A and corresponding scrambled peptides, having the same amino acid composition but in a randomized order (Fig. 1a), with or without C-terminal biotin tag, were synthesized by GenScript (Piscataway, USA) at the purity level > 95% verified with HPLC and their biological activity was verified as described previously.\nFigure 1 Biologically active peptide containing the active region of AtPNP-A protein binds to CAT2. (a) Domain organization of AtPNP-A and the amino acid sequences of C-terminally biotinylated peptides used in affinity chromatography-based experiments—a peptide containing the active site of AtPNP-A (indicated as pAtPNP-A) or the corresponding scrambled peptide (indicated as pScr). Cysteine residues forming a disulfide bond, characteristic to natriuretic peptide (NP)-like molecules, are underlined. SP, signal peptide. (b) Assaying biological activity of the AtPNP-A peptide (pAtPNP-A) and purified recombinant protein (rAtPNP-A). […] In each treatment, 50 randomly selected protoplasts with diameter > 20 µm were included in quantitative analysis (scale bar = 20 µm). Protoplast volume was measured and the data obtained from an exemplar experiment are plotted. […]"}, "[4]": {"test_system": "CAT", "experiment": "Total CAT activity in protein extracted from WT seedlings", "assay_type": "biochemical, Arabidopsis thaliana", "settings": "1 nM", "description": "as §1, §2"}, "[5]": {"test_system": "rCAT2", "experiment": "SPR of CAT2 and AtPNP-A recombinant proteins, CM5 chip, both configurations", "assay_type": "binding, Arabidopsis thaliana", "settings": "amine coupling, 20 °C", "description": "N-terminally 6xHis-tagged AtPNP-A and CAT2 proteins were expressed in BL21 (DE3) One Shot E. coli cells (Life Technologies), purified by affinity chromatography with Ni–NTA beads (Qiagen) and HisTrap HP column (GE Healthcare Lifesciences) as described in[21]. The purity of preparations was verified on 12.5% SDS-PAGE, stained with Coomassie Brilliant Blue (Bio-Rad). Protein identities were confirmed in MS analysis, and protein concentration was determined according to the method of Bradford using BSA as a standard.\nSPR experiments were performed at 20 °C on Biacore T100 instrument operated using Biacore T100 control software (version 2.0.2, GE Healthcare Lifesciences) using Series S CM5 or NTA sensor chips as described in[21]. Kinetic analyses were performed at the flow of 100 μL min^−1 with pAtPNP-A (at 3.78 μM and consecutive twofold dilutions; 11 injections included) employed as a ligand and bovine liver CAT (C-40; Sigma) used as an analyte and immobilized on the active surface of the Series S CM5 sensor chip with amine coupling kit, while the surface regeneration was done with solution of glycine, pH 2.0, and the final sensorgram was generated with Scrubber (BioLogic Software Pty Ltd).\nSupplementary Figure S3. In vitro association of AtPNP-A and CAT2 recombinant proteins.\n(a) Recombinant protein preparations used in SPR analyses. […]"}, "[6]": {"test_system": "CAT2", "experiment": "Bimolecular fluorescence complementation (BiFC)", "assay_type": "cell-based, Arabidopsis thaliana", "settings": "chloroplasts of tobacco leaf protoplasts, NeYFP/CeYFP fusions, mean ± SEM, n = 30, P < 0.0001", "source_text": "The full-length A. thaliana AtPNP-A (At2g18660) coding region entry plasmid pENTRYAtPNP-A[46] and pCR8/GW-TOPOCAT2 were recombined separately with both pSITE-nEYFP-C1 [GenBank Accession Number GU734651] and pSITE-cEYFP-C1 [GenBank Accession Number GU734652] to create pNeYFP-AtPNP-A, pCeYFP-AtPNP-A, pNeYFP-CAT2 and pCeYFP-CAT2, respectively. Each plasmid has either the N-terminal (NeYFP) or C-terminal (CeYFP) fragment of eYFP followed by either AtPNP-A or CAT2 coding region driven by the 35S plant expression promoter. After sequence was confirmed each plasmid was transformed separately into Agrobacterium tumefaciens strain GV3101 (pMP90). Tobacco leaves were infiltrated as previously described in[50]. Briefly, A. tumefaciens strains grown in 2YT medium were harvested by centrifugation and resuspended in infiltration medium (10 mM MES pH 5.6, 10 mM MgCl2, 150 µM acetosyringone) to a final OD600 of 0.2. Equal volumes of infiltration media containing relevant BiFC strains were mixed and infiltrated into the underside of tobacco leaves using a needleless syringe. Leaves were harvested after 3 days to isolate protoplasts following[51] and then immediately imaged.\nBiFC images were captured at the La Trobe University LIMS BioImaging Facility using a LSM 510 confocal laser scanning microscope (Zeiss), with a × 40/1.2 water immersion objective. The natural red autofluorescence of chlorophyll was used as a marker for chloroplasts. Excitation/emission wavelengths were 488/505–530 nm for YFP and 561/650 nm long pass for red fluorescence. At least three images containing one or more protoplasts were taken for each of the plasmid construct combinations. Each image captured three separate filter scans, including YFP, red fluorescence and bright field. Post-processing of images was performed with ImageJ version 1.48 software (https://imagej.nih.gov/ij/). For each image the contrast for each panel was set at automatic contrast. A merged image was generated for reference with a 10 µm scale bar. The red fluorescence only panel was used to encircle ten chloroplasts as region of interest (ROI), then the YFP fluorescence (BiFC) calculated for each ROI was divided by the red fluorescence calculated for the same ROI. All BiFC/red fluorescence points were plotted using GraphPadPrism7 (GraphPadSoftware). Mean and standard error were calculated for each BiFC combination. All statistical analyses were performed using GraphPadPrism7.\nFigure 4 AtPNP-A interacts with CAT2 in vivo. […] Exemplar merged images of protoplasts isolated from a leaf infiltrated with different combinations of N- or C-terminally tagged CAT2 and AtPNP-A are shown. (g) BiFC/Red fluorescence chloroplast analysis with mean ± SEM in pink."}, "[7]": {"target": "T1, bovine liver catalase (CAT) (bovine, UniProt P00432 1-527)", "T1 construct": "catalase from bovine liver, Sigma C-40; also called bovine CAT; CAT from bovine liver; source: bought: Sigma (C-40)", "T1 sequence (looked up)": "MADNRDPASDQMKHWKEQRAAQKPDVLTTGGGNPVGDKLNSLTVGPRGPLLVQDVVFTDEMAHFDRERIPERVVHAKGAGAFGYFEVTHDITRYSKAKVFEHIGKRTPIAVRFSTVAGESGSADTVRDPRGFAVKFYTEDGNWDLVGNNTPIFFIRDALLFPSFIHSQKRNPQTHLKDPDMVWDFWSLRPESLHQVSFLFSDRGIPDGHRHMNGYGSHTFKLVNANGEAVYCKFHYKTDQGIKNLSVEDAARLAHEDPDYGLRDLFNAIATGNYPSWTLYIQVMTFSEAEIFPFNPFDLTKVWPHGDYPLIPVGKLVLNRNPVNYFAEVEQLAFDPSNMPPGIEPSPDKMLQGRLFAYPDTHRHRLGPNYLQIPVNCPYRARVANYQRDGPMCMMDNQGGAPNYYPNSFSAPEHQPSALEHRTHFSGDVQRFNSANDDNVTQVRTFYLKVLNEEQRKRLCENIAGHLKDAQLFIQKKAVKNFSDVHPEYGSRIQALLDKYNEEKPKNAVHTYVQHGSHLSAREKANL", "experiment": "SPR; Biacore T100, 20 °C; bovine liver CAT immobilised by amine coupling on a CM5 chip; pAtPNP-A at 3.78 μM and consecutive twofold dilutions, 11 injections, flow 100 μL/min; regeneration with glycine pH 2.0; kinetic fit with mass transfer term", "settings": "both partners purified"}},
  "note": "Positions of bridges follow the written chain, without caps; N, C: chain ends. No end group written: not given here.",
  "data": [
    {"molecule": "O=C(O)c1ccccc1O", "note": "[SA]", "values": [
      {"measurement": "CAT2 transcript", "setting": "[1]", "value": "Increases in CAT2 transcript"}
    ]},
    {"molecule": "B1", "values": [
      {"measurement": "In vitro enzymatic activity of rCAT2", "setting": "[2]", "value": "significantly enhanced"},
      {"measurement": "Protoplast swelling response (volume)", "setting": "[3]", "value": "comparable to that elicited by an equimolar amount of the recombinant AtPNP-A (rAtPNP-A)"},
      {"measurement": "Total CAT activity of protein extracts", "setting": "[4]; WT seedling protein, Amplex Red kit, mean ± SD, n = 3, P < 0.05", "value": "elevated total CAT activity"},
      {"measurement": "H2O2 breakdown by WT seedling protein extract", "setting": "[4]; total protein extracted from WT seedlings, n = 3", "value": "more rapid H2O2 breakdown"},
      {"measurement": "SPR binding of recombinant AtPNP-A to CAT2", "setting": "[5]", "value": "bind specifically to CAT2"}
    ]},
    {"molecule": "B2", "values": [
      {"measurement": "BiFC / Red fluorescence signal, interaction with CAT2", "setting": "[6]", "value": "Lower BiFC/fluorescence signal"}
    ]},
    {"molecule": "B3", "values": [
      {"measurement": "BiFC / Red fluorescence signal, interaction with CAT2", "setting": "[6]", "value": "significantly higher"},
      {"measurement": "BiFC / Red fluorescence signal, interaction with CAT2", "setting": "[6]; listed as CeYFP-tagged AtPNP-A", "value": "greatest BiFC / Red fluorescence signal"}
    ]},
    {"molecule": "B4", "values": [
      {"measurement": "koff", "setting": "[7]", "value": 0.000941, "unit": "s⁻¹"},
      {"measurement": "kon", "setting": "[7]", "value": 10900, "unit": "M⁻¹ s⁻¹"}
    ]}
  ]
}
